# Experimental data from the DeepSol protein solubility set.
# Experiment: soluble on expression in E. coli; label from the status in PepcDB or PDB records
row,Sequence,soluble on expression in E. coli
1,MKELNDLEKKYNAHIGVYALDTKSGKEVKFNSDKRFAYASTSHAINSAILLEQVPYNKLNKKVHINKDDIVAYSPILEKYVGKDITLKALIEASMTYSDNTANNKIIKEIGGIKKVKQRLKELGDKVTNPVRYEIELNYYSPKSKKDTSTPAAFGKTLNKLIANGKLSKENKKFLLDLMLNNKSGDTLIKDGVPKDYKVADKSGQAITYASRNDVAFVYPKGQSEPIVLVIFTNKDNKSDKPNDKLISETAKSVMKEF,soluble
2,MKENFQIHIWLGLLLCLLGMSCSDDTPAKGDDPGNGNTELEVNEWIESVMRSDYLWNNDIPAQNKLDFSADPQTFFRSMLSLKDGKTRNGKHLYYYSYMEKNKDYKARTSIDADDTYGMEFTLFNVVNDSNQPLGYYYARILYVLPNSPASSAGLERGDWIVGVKGRNNINSDNYGILLNGDRTQWLVKRGDTEVRTIDIEASRAVEDNPLFYHNVYTRGDKKIGYLVYNHFTSGPNGYSDRTYDEEMKKIFAGFQAQGVNEFVLDLRYNGGGYENSANMLAGLLIPEASRKKVFAVFSDNKGQSYSNDFCVETKGTAGYLKLNSNRIYILTSQSTASSSEVVINSLNPFMDVILIGELTEGKNVGMEMQKNDKYEWIYWPITLRVTNAVNDDYSAGFKPDIEWNEYDLTQNPTDALLPLGDPDEFMLGKAISLITGINRSARSMNTLGIFSKCL,not soluble
3,MKFCKKCVMPDTKPDLHFDEEGVCDACRSQEAKNQNINWQEREKEFFELIKKYKKHPVYDCVIGVSGGKDSTFQVVKMLELGLNPLCVCFEPSVPTKIGRKNLDNLNHLGVDLIHIKRDPKVYQKLAREAFIRTGDNEWQNHLGIFTSVPRIAVNFGVPLIIWGESPQIEYGGPASSKNKNILGREWLEEFGGLLGNRASDMLGVNGITEKDLFLYTYPSDEELQRVGVTGLFLGYYFKWDYKKILEISKKYGFLTLDHPVETTYENFENLDCYSNHVHDYLKYCKYGFGRATDNACLDIRLGYISREEGVRLAQKYDGKPPKKAIKKYLEFSGFSEEEFQKIVDSFTNKKIFKRDENGKFIRDYDGSLVRKDECVLK,not soluble
4,MKFDIVVIGGGLAGASLLAALKGSGLRLALIESRPPAPLPDDDSWDARVYAISPGSVEFLQSSGIWQRMNAARITPVHEMRVHGDDNAARIDFSAYESGVPELACIIENRQLQHAVWEELAGAENVQIFCPAQCDSLAWQDSHVELTLADGTVLQTALLIGADGINSRVREQAGIGVDRHSYYQTGVVANFETERVHHHIAYQWFRRDGILALLPLPGKRVSMVWSANTALADELLNLSAEALCDRVARAAEYELGSMRLVTAPLGFPLNFVHARSLIKPRLALIGDAAHGIHPLAGQGVNLGLRDVRELARLQRQFGGIGDCGEFSLLRCYERNRKEDILAMGWVTDGLQKLFGSEDAAIMRIRNVGLGITNRLPLLKNRLMRHALSLEHHHHHH,not soluble
5,MKFEYEYMETPEDLLMSLSAGFAMAMRNIATVYSYKGYLSYYTPAMSDGEELTMFVTLTKGELAPGLIDFDSENKRIEHVKKATNPEAYHFLVIRPQISTVLDKAIYDFEKSRNQP,not soluble
6,MKFFLLKKFSEFLNAQTHFSLKRLNASSFLLETFSKEKHAFVVDLSAPYIGLSKKPPESVLKNTLALDFCLNKFTRNAKILQANIIDNDRILEINGAKDLAYKSENFILRLEMIPKKANLMILDKEKCVIEAFRFNDRVAKNDILGALPPNIYEHQEEDLDFKGLLDILEKDFLFYQHKELEHKKNQIIKRLNAQKERLKEKLEKLEDPKNLQLEAKELQTQASLLLTYQHLIHKHESRVVLKDFEDKERAIEIDKSMPLNAFINKKFTLSKKKKQKSQFLYLEEENLKEKIAFKENQINYVKGAQEESVLEMFMPSKNSKIKRPMSGYEVLYYKDFKIGLGKNQKENIKLLQDARANDLWMHVRNIPGSHLIVFCQKNAPKDDVIMELAKMLIKMQKDAFNSYEIDYTQRKFVKIIKGANVIYSKYRTISLKDT,not soluble
7,MKFICPLFVVNNMEISRNFYEKVLNQKVQYDFGENVSFESGFAIHLKPHFSELTGINRNDIIQKSNNSELYFEEEDLDSFLKKLKEMNSIEYVHELKEQPWGQRVIRFYDPDMHIIEVGEPMESVVKRLLSEGLSVEETSKRTLMPEEFVRQFLLEHHHHHH,soluble
8,MKFLPYIFLLCCGLWSTISFADEDYIEYRGISSNNRVTLDPLRLSNKELRWLASKKNLVIAVHKSQTATLLHTDSQQRVRGINADYLNLLKRALNIKLTLREYADHQKAMDALAEGEVDIVLSHLVTSPPLNNDIAATKPLIITFPALVTTLHDSMRPLTSPKPVNIARVANYPPDEVIHQSFPKATIISFTNLYQALASVSAGHNDYFIGSNIITSSMISRYFTHSLNVVKYYNSPRQYNFFLTRKESVILNEVLNRFVDALTNEVRYEVSQNWLDTGNLAFLNKPLELTEHEKQWIKQHPNLKVLENPYSPPYSMTDENGSVRGVMGDILNIITLQTGLNFSPITVSHNIHAGTQLSPGGWDIIPGAIYSEDRENNVLFAEAFITTPYVFVMQKAPDSEQTLKKGMKVAIPYYYELHSQLKEMYPEVEWIQVDNASAAFHKVKEGELDALVATQLNSRYMIDHYYPNELYHFLIPGVPNASLSFAFPRGEPELKDIINKALNAIPPSEVLRLTEKWIKMPNVTIDTWDLYSEQFYIVTTLSVLLVGSSLLWGFYLLRSVRRRKVIQGDLENQISFRKALSDSLPNPTYVVNWQGNVISHNSAFEHYFTADYYKNAMLPLENSDSPFKDVFSNAHEVTAETKENRTIYTQVFEIDNGIEKRCINHWHTLCNLPASDNAVYICGWQDITETRDLINALEVEKNKAIKATVAKSQFLATMSHEIRTPISSIMGFLELLSGSGLSKEQRVEAISLAYATGQSLLGLIGEILDVDKIESGNYQLQPQWVDIPTLVQNTCHSFGAIAASKSIALSCSSTFPEHYLVKIDPQAFKQVLSNLLSNALKFTTEGAVKITTSLGHIDDNHAVIKMTIMDSGSGLSQEEQQQLFKRYSQTSAGRQQTGSGLGLMICKELIKNMQGDLSLESHPGIGTTFTITIPVEISQQVATVEAKAEQPITLPEKLSILIADDHPTNRLLLKRQLNLLGYDVDEATDGVQALHKVSMQHYDLLITDVNMPNMDGFELTRKLREQNSSLPIWGLTANAQANEREKGLSCGMNLCLFKPLTLDVLKTHLSQLHQVAHIAPQYRHLDIEALKNNTANDLQLMQEILMTFQHETHKDLPAAFQALEAGDNRTFHQCIHRIHGAANILNLQKLINISHQLEITPVSDDSKPEILQLLNSVKEHIAELDQEIAVFCQKND,not soluble
9,MKFPFHPWRRLLLCALPFAALLTACDDGKKEPPPKPAEVTTYNSVPWDALPATSDADLLAGFNAWRSACARLAKDPVWGEPCASATTVAADPTAVRAFLQERMQVYSLRSSSNGDQGLITGYYEPVYHGSLSQGEKTPVPVYGVPDDLVVVALESVYPELKGKRLRGRLEGRVLKPYDDAATIRDNGSSAPVLAWLGDPMDLQFLQIQGSGRIQLEDGRQLRIGYGDQNGHPYKPVGRWLVEQGLVPKEEISMKRIRDWAEANPQRVSELLASNPSFVFFSLRPDSDEGPRGSLNVPLTDGYSVAIDRKVIPLGSLMWLSTTRPDDGSAVVRPVAAQDTGGAIVGEVRADLFWGTGDAAGELAGHMKQPGRLWLLWPKGAPLPAS,not soluble
10,MKFRSTALVKGFRQSAPYVNAHRDKTVVIMLGGEAIADPNFANIVNDIALLNSLGLRIVIVYGTRPQMRSLLKQTEHHAPFHKGIRITDEQTLELVKQIAGQLQLDITARLSMSLNNTPMAGAQINVISGNFVIAQPLGVDDGIDYCHSGRVRRIDTQGINRMLDQQSIVLLGPVASSVTGECFNLLSEDVATQLAIRLNADKLIGFCSEQGVLNEKGQILAELFPSEAEEILQRLEKELTPENGKLTGTMRFLKGAISACKAGVPRSHLISYKEDGALIQELFSFDGIGTQVVMASSEQVRDAEIDDIGGILDLIRPLEEEGILVRRSREQLEQEIAQFTIIEKDGLVIACAALYPFPEEGMAEMGCVAVHPDYRDGDRGVTLLNRLRSKAKQFKLSQLFVLTTRSLHWFREQGFIEVDVSHLPIKKQKLYNFQRKSKILVLKGL,not soluble
11,MKFSALGDQAIIVTFGEEIKRDIYEKVQRLFQALQQHPFAGMIECVPSFTSLAVYYNVYEVWKGNERSERSHDYVRQYIKELCDSYKEEVKQDVKHISIPVCYGGEYGPDLEEVAHYHGLQVEDVIRIHSETTYFVYMLGFTPGFPYLGGLSKELETPRKETPRLQISPGSVGIGGNQTGIYPLETPGGWNIIGRTPISLFNPEEEIPTYIQSGMYLRFIPITKEEYVSLEGAKKWMLEHHHHHH,soluble
12,MKFSSLLQDTAAIDVFIKILTSVSKLSKKRCCVKIEKNALNFICCSGLHDGGSWFSLSIPYSSQIFRKFDMVGMNPRNEEQNLIYFELEIDSLVRVLPGGHCYLKLKLSKSQKDEPMLSVEVRNPEADIVSHQIPITIILSKYWNSYSRPSIGHRKMSISMPPPKMMSRFLHVFKNMNTRVVKLTASTSGDLRISTKIETGEIDVSFSDLQTNPSETDSQEDTAKVQLMIRNISPLFQSFANTRTRAKMNIISNRMAEFNFHNEDCVLSYIVGNVSD,not soluble
13,MKGLIIKQPYANWIVEGKKVWEIRKTPTKIRGRVIIISEKKAVGSVEIVDVLGPFTPEELANHENKHLASYDFLKRYANGKKLYAWVLANPEKYDPPIEVKIPNGAQIWVNLKGFVRR,soluble
14,MKGNYVQVYVMLPLDAVSVNNRFEKGDELRAQLRKLVEAGVDGVMVDVWWGLVEGKGPKAYDWSAYKQLFELVQKAGLKLQAIMSFHQCGGNVGDAVNIPIPQWVRDVGTRDPDIFYTDGHGTRNIEYLTLGVDNQPLFHGRSAVQMYADYMTSFRENMKDFLDAGVIVDIEVGLGPAGELRYPSYPQSHGWSFPGIGEFICYDKYLQADFKAAAAAVGHPEWEFPNDAGQYNDTPERTQFFRDNGTYLSEKGRFFLAWYSNNLIKHGDRILDEANKVFLGYKVQLAIKIAGVHWWYKVPSHAAELTAGYYNLHDRDGYRTIARMLKRHRASINFTCAEMRDSEQPPDAMSAPEELVQQVLSAGWREGLNVSCENALPRYDPTAYNTILRNARPHGINQSGPPEHKLFGFTYLRLSNQLVEGQNYVNFKTFVDRMHANLPRDPYVDPMAPLPRSGPEISIEMILQAAQPKIQPFPFQEHTDLPVGPTGGMGGQAEGPTCG,soluble
15,MKHMEKFANHFGYNRMFAKDQLTLGVHIPIENYQFHAPTMEKQVELVQKAEQYGFTGVWLRDVLLQDPDFGDPATGQIYDMMIYLTYLASKTEKIAFGTSATVLSLRHPLRVAKEIATLDQLFPERIMLGVSSGDRRADFKALGVSHETRGEKFREAFAYLEEILYKNFPSIQSTLGEVHGANLVPKPSKRVPTFITGFSQQNMEWFAEHGDGWMYYPRSPVHQAGAIGQWRELVEDYHPDVFKPFIQPMHLDLSEDPNERPTPIRLGYRTGRKALIELLDIYKSIGVNHLFLALFDGQRPADEVLDELGEEVLPHFPAL,soluble
16,MKHWFNIALAALALSSATVQAATEVKVGMSGRYFPFTFVKQDELQGFEVDVWNEIGKRNDYKVEFVTANFSGLLGLLETGRIDTISNQITITDARKAKYLFSDPYVIDGAQITVRKGNEAIKGIDDLAGKTVAVNLGSNFEQLLRNHDKDGKINIKTYDTGIEHDVALGRADAFVMDRLSALELIEKTGLPLQLAGSPFETIENAWPFVNNEKGQQLQGEVNKALAAMRADGTLSQIALKWFGTDISQ,not soluble
17,MKHYDSMDQELITMPISNAFLKLFSEFVDNYARNGTPSFYHWAKEQNHEVINKFFHELLEIIKSNTETFHDVSIIEHLNATVLLSAKTNPYLLDCWISFITKYNAETNSFTPIGASMHIKVGPEGTPSERIIRELKESLVMTQQAFILAQKANATEVDSLKRQLEQTKQENERLVTQNQFLKDQVRAEKTFADLNPQINNARQQLSALTELIQTLSEITNAKPKIETVSSLSIPVVTENKSELLKENSCSVASVSKEVTPAISQEPKKRPVPPPPNDTDGQALSPNIPPKEDVSIKVTIPSMPKPNSTQPAAKNSGFFSGDGFLKELNAKIKERKERPKDEPHTTPVEKKNL,not soluble
